Test results reported in patent US20240092848A1 (UNIVERSIT LIBRE DE BRUXELLES, published 2024).
Side chains are listed from the residue outwards. Ends that are not written are not given here. AFM tip = not defined here

Experiments:
Reck-CK-Fc [1] = biological target: T1, Reck-CK-Fc; assay: isothermal titration calorimetry, peptide titrated into Reck-CK-Fc, 25 °C
T1 chain: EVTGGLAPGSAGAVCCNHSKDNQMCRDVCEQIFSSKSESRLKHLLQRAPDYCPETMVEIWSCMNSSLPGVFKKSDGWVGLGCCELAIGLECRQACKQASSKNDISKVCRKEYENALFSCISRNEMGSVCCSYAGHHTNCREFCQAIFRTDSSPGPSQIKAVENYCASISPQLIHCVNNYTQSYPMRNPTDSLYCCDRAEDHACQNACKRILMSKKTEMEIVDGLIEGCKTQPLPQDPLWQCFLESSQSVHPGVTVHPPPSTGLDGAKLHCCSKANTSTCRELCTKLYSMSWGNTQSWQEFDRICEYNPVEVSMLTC

Reck-CK-Fc [2] = biological target: T1, Reck-CK-Fc; assay: isothermal titration calorimetry with Reck-CK-Fc, 25 °C
Reck-CK-Fc [3] = biological target: T1, Reck-CK-Fc; assay: single-molecule force spectroscopy (AFM tip with PEG-linked pWnt7b, surface coated with Reck-CK-Fc on protein G)
HA-Reck = biological target: T2, HA-Reck; assay: proximity ligation assay (anti-V5/anti-HA), with against without co-expressed Gpr124
T2 construct: whole, on cells; Co-expressed with V5-tagged Wnt ligands in GPR124-/-;RECK-/- HEK293 cells for PLA
T2 sequence (O95980 23-942, species assumed, looked up): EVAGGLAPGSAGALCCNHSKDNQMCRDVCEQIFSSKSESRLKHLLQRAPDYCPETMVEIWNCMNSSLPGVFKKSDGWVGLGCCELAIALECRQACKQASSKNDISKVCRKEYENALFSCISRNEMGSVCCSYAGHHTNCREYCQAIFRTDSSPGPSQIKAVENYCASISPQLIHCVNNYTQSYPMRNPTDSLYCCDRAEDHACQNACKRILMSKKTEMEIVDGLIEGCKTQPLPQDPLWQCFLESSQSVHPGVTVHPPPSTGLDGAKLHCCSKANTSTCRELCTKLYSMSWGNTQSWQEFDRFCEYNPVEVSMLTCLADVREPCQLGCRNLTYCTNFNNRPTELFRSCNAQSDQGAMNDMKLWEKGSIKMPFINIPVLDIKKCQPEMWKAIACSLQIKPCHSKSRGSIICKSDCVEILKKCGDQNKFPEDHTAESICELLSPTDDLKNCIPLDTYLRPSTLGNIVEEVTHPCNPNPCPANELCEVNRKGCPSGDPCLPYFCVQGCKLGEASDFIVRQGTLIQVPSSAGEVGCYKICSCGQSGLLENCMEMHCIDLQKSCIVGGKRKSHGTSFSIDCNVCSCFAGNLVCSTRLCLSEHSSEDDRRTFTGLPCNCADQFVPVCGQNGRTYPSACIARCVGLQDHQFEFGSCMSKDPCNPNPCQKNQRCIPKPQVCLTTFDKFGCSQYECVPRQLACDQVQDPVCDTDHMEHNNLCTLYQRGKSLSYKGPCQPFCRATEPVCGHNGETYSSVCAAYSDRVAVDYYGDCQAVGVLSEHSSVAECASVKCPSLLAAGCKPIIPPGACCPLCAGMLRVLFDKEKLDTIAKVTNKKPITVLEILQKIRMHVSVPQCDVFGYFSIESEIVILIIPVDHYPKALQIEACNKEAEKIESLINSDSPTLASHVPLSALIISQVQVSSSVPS
Experimental: Cells were fixed with 4% paraformaldehyde for 10 min at room temperature (RT) 48 h post transfection. For immunofluorescence staining (IF), cells were blocked in 1% BSA-PBS for 30 min before being exposed to primary antibodies for 1 h at RT. After three PBS washes, cells were incubated with secondary antibodies for 1 h at RT. For anti-V5 staining of Wnt ligands, cells were additionally washes for 10 min in PBS 0.1% Tween 20 before incubation with the secondary antibody solution. For the proximity ligation assay (PLA) (Sigma-Aldrich, St. Louis, MO), cells were blocked for 30 min at 37° C. with the Blocking solution provided by the manufacturer before being incubated with the primary antibodies for 1 h at RT. Cells were washed three times and incubated with the PLA probes anti-rabbit PLUS and anti-mouse MINUS for 1 h at 37° C. […]
Although Reck appears to be the dominant Wnt7 binding determinant, its function in Wnt signaling is known to rely on its capacity to form a complex with Gpr124 through its N-terminal CK domain (Y. Zhou, J. Nathans, Dev. Cell. 31, 248-256 (2014); B. Vanhollebeke et al., Elife. 4, 1-25 (2015)), a domain that is shown herein to be additionally implicated in Wnt7a binding. […] However, a 4-fold increase in Wnt7a-V5/HA-Reck PLAs signals was detected upon co-expression of untagged Gpr124 (FIG. 1F). […]

B1: pWnt7a (peptide)
peptide: VEPVRASRNKRPTFLKIKKPLSYRKPMDT
notes: Synthetic, purity over 90%; also called synthetic Wnt7a linker peptide; pWnt7a 238-266
B1 was tested. Which Kd (Reck-CK-Fc [1]) did it give?
Its Kd is 7 µM.

B2: pWnt7b (peptide)
peptide: VEVVRASRLRQPTFLRIKQLRSYQKPMET
notes: also called synthetic Wnt7b linker peptide
For B2, which Kd (Reck-CK-Fc [2]) is on record?
The Kd was 1.2 µM.

B3: pWnt7b peptide on the AFM tip (peptide)
peptide: VEVVRASRLRQPTFLRIKQLRSYQKPMETC([NHS‑PEG27‑maleimide linker-AFM tip])
modifications: reading uncertain
notes: Used in single-molecule force spectroscopy; also called Pep7b
How did the Kd (Reck-CK-Fc [3]) turn out when B3 was run?
The Kd was 5 µM.

B4: Wnt7a-V5 (ligand)
chain: LGASIICNKIPGLAPRQRAICQSRPDAIIVIGEGSQMGLDECQFQFRNGRWNCSALGERTVFGKELKVGSREAAFTYAIIAAGVAHAITAACTQGNLSDCGCDKEKQGQYHRDEGWKWGGCSADIRYGIGFAKVFVDAREIKQNARTLMNLHNNEAGRKILEENMKLECKCHGVSGSCTTKTCWTTLPQFRELGYVLKDKYNEAVHVEPVRASRNKRPTFLKIKKPLSYRKPMDTDLVYIEKSPNYCEEDPVTGSVGTQGRACNKTAPQASGCDLMCCGRGYNTHQYARVWQCNCKFHWCCYVKCNTCSERTEMYTCK
modifications: palmitoleic acid at Serine 206 (precursor numbering)
notes: Transiently expressed in HEK293 cells; also called V5-tagged Wnt7a; full-length Wnt7a; not shown: V5 tag
With B4 as the binder, how does the “fold increase in PLA signal upon co-expression of untagged Gpr124” value (HA-Reck) read?
The value was 4 fold.
